Four molecules from US20240279345A1, “ALPHA 5 BETA 1 INTEGRIN BINDING AGENTS AND USES THEREOF” (PASITHEA THERAPEUTICS CORP., priority 2021, published 2024) can be followed below.

Substitutions are numbered along the chain they refer to.

Assay [1] addresses rh-α5β1 protein bound to human FN protein (Homo sapiens, UniProt P05556+P08648). The assay can be described thus: SPR dissociation of rh-α5β1 bound to FN. It is filed as biochemical. Particulars: 1 μM antibody injected for 250s after 400 nM rh-α5β1; 25° C. As for the experimental part: Surface Plasmon Resonance (SPR) and a cell-based assay were used to test the effect of the antibodies on the dissociation of rh-α5β1 protein bound to human FN protein. The antibodies tested are representatives of the two groups of antibodies identified in Example 6 that define two different epitope binding groups and have distinct ligand blocking properties. […] In addition, the small molecule antagonist cyclic RGD (cRGD; Creative-Peptides, Shirley, New York, 11967, cat. no. CP22175) was tested as a comparator that inhibits α5β1 integrin binding to FN by competing at the ligand binding pocket.
Description of the SPR method used: FN protein dissolved in water was manually printed onto the bare gold-coated (thickness 47 nm) PlexArray Nanocapture Sensor Chip (Plexera Bioscience, Seattle, WA) at 40% humidity. The chip was incubated in 80% humidity at 4° C. for overnight and rinsed with 10×PBST (0.1M phosphate buffer, 1.54M NaCl, pH7.4, 0.5% Tween20) for 10 minutes (min), 1×PBST (0.01M phosphate buffer pH7.4, 0.154M NaCl, 0.05% Tween20) for 10 min, and deionized water twice for 10 min. The chip was then blocked with 5% (w/v) non-fat milk in water overnight, and washed with 10×PBST for 10 min, 1×PBST for 10 min, and deionized water twice for 10 min before being dried under a stream of nitrogen prior to use. SPR measurements were performed using PlexArray HT (Plexera Bioscience, Seattle, WA), a high-throughput surface plasmon resonance imaging (SPRi) platform. Collimated light (660 nm) passes through the coupling prism, reflects off the SPR-active gold surface, and is received by the CCD camera. Buffers and samples were injected by a non-pulsatile piston pump into the 30 μL flow cell that was mounted on the coupling prim. […] SPR binding responses (a.u.) were recorded and plotted over time.

In a further assay the test system is U87MG cells. In words: Cellular detachment of U87MG cells from FN coated plates. Particulars: antibodies 2.0-0.016 μg/mL, cRGD 20-0.16 μM; 1 hour and 3 hours. In kind it is cell-based. As for the experimental part:
The A-15B08 and A2-7A05 antibodies and cRGD were also tested for their ability to induce dissociation of cellular α5β1 integrin from FN. U87MG cells (HTB-14™, ATCC, Manassas, VA) which were originally derived from a Glioblastoma tumor, are known to express α5β1 integrin, and adhere to FN coated plates. After an overnight incubation on FN coated plates, the U87MG cells formed a loosely packed monolayer and have extended spindle shapes. If the cells are induced to detach from the plates, by trypsin for example, the attachment points are released, and the cells become round. This type of change in morphology was used to assess whether the antibodies and the small molecule inhibitor cRGD can induce U87MG cells to dissociate from FN coated plates.
The following method was used to assess cellular detachment activity: A 96-well cell culture plate (Thermo Fisher Scientific, Waltham, MA, cat. no. 165306) was coated with FN (Human Fibronectin, R&D Systems, Minneapolis, MN 55413, cat. no. 1918-FN) by incubation of 50 uL per well 32 μg/mL FN in 1×PBS for 1 hour at 37° C., then washed 2× with EMEM media (ATCC, Manassas, VA, cat. no. 30-2003) supplemented with 10% Fetal Bovine Serum (FBS; ATCC, Manassas, VA, cat. no. 30-2021). U87MG cells were plated at 20,000 cells per well in EMEM media+10% FBS overnight to allow for maximum adherence. The next day the media was replaced with fresh media that included a 1:5 dilution series of antibodies A-15B08, A2-7A05 or isotype control IgG4 at concentrations of 2.0, 0.4, 0.08 and 0.016 μg/mL or cRGD at 20, 4, 0.8 and 0.16 μM. All tests were run in duplicate. Cell morphology was assessed, and images were captured using a 10× objective of an ECHO Rebel light microscope (ECHO, San Diego, CA).

Assay [2] has as its target T1, recombinant human α4β1 integrin (rh-α4β1; R&D Systems, cat. no. 5668-A4) (human, UniProt P13612 34-977; P05556 21-728).
T1 construct: bought recombinant heterodimer
In words: ELISA, coated rh-α4β1, supernatant 1:10. For orientation: In an ELISA, binding on a coated surface is turned into a signal by an enzyme label.

Assay [3] concerns the target T2, recombinant human α5β1 integrin (rh-α5β1; R&D Systems, cat. no. 3230-A5) (human, UniProt P08648 42-995; P05556 21-728).
T2 construct: bought recombinant heterodimer
The assay can be described thus: ELISA, coated rh-α5β1, supernatant 1:10. Here is the method:
(§1) Plates were washed 3 times with Wash Buffer (1× Tris Buffered Saline containing 0.05% Tween20), blocked with 2% BSA in 1×TBS (made from 10× Thermo Scientific Blocker BSA (10×) in TBS; Thermo Fisher Scientific, Waltham, MA, cat. no. 37520) for 2 hours at room temperature (RT) then incubated with hybridoma supernatants diluted 1:10 with Standard Diluent (2% BSA, 1×TBS, 0.05% Tween20). […] Absorbance 450 nm was measured.

Assay [4] has as its target T3, recombinant mouse α5β1 (rm-α5β1; R&D Systems, cat. no. 7728-A5) (mouse, UniProt P11688 45-999; P09055 21-728).
T3 construct: bought recombinant heterodimer
In words: ELISA, coated rm-α5β1, supernatant 1:10. Here is the method:
as §1

Assay [5] has as its target T4, purified recombinant human α5β1 integrin heterodimer, 6×His tagged (rh-α5β1); Acro Biosystems, cat. no. … (human, UniProt P08648 42-995; P05556 21-728).
T4 construct: bought recombinant heterodimer; also called rh-α5β1-6×His tagged protein; His-tagged-α5β1
The assay can be described thus: BLI (Octet), supernatant mAb on anti-mouse IgG Fc sensor, 20 nM rh-α5β1. The text has this:
Anti-Mouse IgG Fc biosensors were used to load each clone supernatant. Assay steps were as follows: Sensor Check (30s)-->Load Ab (700s)-->Quench (480s)-->Baseline(480s)-->Ab Assoc. (600s)-->Dissoc. (600s).
For orientation: Biolayer interferometry detects binding as a change in optical thickness at a sensor tip.

In assay [6] the target is T4, purified recombinant human α5β1 …. In words: ELISA, inhibition of rh-α5β1-His binding to coated FN, purified hybridoma mAb. Here is the method:
Immulon4 HBX ELISA 96-well plates were coated with FN by incubation overnight at 4° C. with 2.5 μg/mL human FN (R&D Systems, Minneapolis, MN 55413, cat. no. 1918-FN) in 1×PBS (0.01M phosphate buffer and 0.154M NaCl, pH 7.4). Plates were then washed 3 times with Wash Buffer (1× Tris Buffered Saline containing 0.05% Tween20), blocked with 2% BSA in 1×TBS for 2 hours at room temperature (RT). […] Isotype control antibody (Control Ab; Ms IgG2a EMD Millipore Corp, Billerica, MA, cat. no. PP102) was used to normalize data across different assay runs. […] Following 1 hour at RT, the wells were washed 3 times, incubated with biotinylated Anti-6×His-Tag Ab (Invitrogen, Carlsbad, CA, cat. no. MAI-21315-BTIN) at 1:1000 in Standard Diluent for 1 hour, washed 3 times, incubated for 30 minutes with poly-HRP Streptavidin (Thermo Fisher Scientific, Waltham, MA, cat. no. N200), washed 4 times, incubated with TMB substrate (Thermo Fisher Scientific, Waltham, MA, cat. no. N301) for 2-5 minutes, followed by addition of ELISA Stop Solution (Invitrogen, Carlsbad, CA, cat. no. SS04). Absorbance 450 nm was measured. Data points were normalized to the isotype Control Ab values at each concentration and reported as % Absorbance 450 nm normalized to Control Ab. Non-linear regression analysis was used to fit curves (4-parameter) to the data using GraphPad Prism version 9.0.2 (GraphPad Software, LLC, San Diego, CA).

T2 sequence (P08648 42-995 limits assumed, form in doubt, chain 1 of 2): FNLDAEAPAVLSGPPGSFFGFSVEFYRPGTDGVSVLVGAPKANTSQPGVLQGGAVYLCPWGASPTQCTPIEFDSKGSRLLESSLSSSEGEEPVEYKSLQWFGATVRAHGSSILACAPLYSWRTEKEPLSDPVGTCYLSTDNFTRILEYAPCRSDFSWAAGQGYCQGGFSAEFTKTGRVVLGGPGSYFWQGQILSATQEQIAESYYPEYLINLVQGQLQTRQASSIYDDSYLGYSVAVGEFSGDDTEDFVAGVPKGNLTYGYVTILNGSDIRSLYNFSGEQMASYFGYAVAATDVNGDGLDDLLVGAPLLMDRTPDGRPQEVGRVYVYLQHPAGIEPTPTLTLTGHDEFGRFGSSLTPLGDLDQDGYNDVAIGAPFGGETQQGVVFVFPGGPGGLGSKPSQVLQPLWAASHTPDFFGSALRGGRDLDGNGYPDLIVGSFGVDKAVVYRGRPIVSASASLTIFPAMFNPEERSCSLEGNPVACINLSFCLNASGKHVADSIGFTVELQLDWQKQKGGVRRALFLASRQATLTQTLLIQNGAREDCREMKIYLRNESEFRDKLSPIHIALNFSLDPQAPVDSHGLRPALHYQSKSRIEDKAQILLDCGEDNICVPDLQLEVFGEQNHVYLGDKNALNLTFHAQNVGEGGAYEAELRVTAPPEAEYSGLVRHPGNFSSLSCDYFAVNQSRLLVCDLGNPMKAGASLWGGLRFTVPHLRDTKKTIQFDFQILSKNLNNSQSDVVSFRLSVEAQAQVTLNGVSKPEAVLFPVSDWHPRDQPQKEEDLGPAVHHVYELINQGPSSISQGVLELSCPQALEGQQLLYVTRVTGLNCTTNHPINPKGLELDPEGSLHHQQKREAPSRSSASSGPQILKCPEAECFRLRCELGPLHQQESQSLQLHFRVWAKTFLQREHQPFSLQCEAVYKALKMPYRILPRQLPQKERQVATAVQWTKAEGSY
T2 sequence (P05556 21-728 limits assumed, form in doubt, chain 2 of 2): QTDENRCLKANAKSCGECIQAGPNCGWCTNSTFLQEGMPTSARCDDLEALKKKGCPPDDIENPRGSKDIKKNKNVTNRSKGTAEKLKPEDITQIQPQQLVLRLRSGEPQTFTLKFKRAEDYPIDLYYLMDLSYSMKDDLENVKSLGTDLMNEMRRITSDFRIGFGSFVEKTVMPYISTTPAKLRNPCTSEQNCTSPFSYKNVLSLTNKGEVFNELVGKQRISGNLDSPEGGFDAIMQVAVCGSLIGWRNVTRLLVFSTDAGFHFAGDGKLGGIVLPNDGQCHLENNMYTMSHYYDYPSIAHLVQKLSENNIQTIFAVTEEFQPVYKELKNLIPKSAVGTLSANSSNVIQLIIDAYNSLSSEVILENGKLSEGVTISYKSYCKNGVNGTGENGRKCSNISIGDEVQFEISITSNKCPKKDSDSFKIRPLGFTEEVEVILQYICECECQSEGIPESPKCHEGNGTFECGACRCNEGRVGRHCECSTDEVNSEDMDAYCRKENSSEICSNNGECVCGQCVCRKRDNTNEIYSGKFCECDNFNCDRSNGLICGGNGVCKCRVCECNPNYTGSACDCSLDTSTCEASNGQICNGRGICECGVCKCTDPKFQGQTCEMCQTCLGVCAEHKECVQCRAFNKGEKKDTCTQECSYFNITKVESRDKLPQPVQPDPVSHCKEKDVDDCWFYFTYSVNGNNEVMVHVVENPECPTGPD
T4 sequence (P08648 42-995 limits assumed, form in doubt, chain 1 of 2): as the sequence (P08648 42-995 limits assumed, form in doubt, chain 1 of 2) above
T4 sequence (P05556 21-728 limits assumed, form in doubt, chain 2 of 2): as the sequence (P05556 21-728 limits assumed, form in doubt, chain 2 of 2) above
T3 sequence (P11688 45-999 limits assumed, form in doubt, chain 1 of 2): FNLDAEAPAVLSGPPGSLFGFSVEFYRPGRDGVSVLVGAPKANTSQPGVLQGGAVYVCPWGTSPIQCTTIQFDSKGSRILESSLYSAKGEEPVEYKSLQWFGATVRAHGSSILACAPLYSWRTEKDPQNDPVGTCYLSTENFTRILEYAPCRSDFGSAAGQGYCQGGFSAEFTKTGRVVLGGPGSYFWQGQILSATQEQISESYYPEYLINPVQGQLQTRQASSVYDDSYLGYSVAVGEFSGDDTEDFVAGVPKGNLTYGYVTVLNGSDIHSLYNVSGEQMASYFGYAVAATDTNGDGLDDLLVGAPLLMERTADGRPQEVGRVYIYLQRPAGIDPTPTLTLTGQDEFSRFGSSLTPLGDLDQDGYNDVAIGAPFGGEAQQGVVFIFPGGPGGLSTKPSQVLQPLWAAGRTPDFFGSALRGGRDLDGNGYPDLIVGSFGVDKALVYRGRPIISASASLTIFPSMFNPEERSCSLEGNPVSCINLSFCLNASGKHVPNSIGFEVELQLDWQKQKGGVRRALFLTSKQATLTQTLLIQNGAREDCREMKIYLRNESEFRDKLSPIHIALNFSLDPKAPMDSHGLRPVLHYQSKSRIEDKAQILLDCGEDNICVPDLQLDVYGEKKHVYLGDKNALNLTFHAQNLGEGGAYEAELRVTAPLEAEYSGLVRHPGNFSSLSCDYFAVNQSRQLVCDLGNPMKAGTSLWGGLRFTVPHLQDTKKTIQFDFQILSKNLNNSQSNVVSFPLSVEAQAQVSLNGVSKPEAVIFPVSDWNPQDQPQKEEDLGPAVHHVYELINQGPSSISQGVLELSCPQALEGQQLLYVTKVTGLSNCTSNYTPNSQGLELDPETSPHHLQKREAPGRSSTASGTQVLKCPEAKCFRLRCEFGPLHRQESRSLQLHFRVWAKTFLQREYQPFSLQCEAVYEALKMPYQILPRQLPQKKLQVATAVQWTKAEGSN
T3 sequence (P09055 21-728 limits assumed, form in doubt, chain 2 of 2): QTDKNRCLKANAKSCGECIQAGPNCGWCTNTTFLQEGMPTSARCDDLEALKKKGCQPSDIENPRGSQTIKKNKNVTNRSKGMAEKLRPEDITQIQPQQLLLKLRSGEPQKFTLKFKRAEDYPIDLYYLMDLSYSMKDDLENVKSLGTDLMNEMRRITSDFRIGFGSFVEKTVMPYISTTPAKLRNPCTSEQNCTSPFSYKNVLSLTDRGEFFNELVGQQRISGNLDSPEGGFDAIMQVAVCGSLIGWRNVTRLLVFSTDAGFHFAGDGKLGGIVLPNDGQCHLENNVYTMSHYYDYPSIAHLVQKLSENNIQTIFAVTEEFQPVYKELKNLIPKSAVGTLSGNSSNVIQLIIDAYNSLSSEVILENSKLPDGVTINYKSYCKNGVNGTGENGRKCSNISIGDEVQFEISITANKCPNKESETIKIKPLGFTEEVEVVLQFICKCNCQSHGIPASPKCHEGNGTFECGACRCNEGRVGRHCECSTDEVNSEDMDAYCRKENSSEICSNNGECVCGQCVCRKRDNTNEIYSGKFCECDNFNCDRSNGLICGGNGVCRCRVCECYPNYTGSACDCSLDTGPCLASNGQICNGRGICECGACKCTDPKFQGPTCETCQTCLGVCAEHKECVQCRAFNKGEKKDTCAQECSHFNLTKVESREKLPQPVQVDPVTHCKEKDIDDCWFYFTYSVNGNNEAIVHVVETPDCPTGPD
T1 sequence (P13612 34-977 limits assumed, form in doubt, chain 1 of 2): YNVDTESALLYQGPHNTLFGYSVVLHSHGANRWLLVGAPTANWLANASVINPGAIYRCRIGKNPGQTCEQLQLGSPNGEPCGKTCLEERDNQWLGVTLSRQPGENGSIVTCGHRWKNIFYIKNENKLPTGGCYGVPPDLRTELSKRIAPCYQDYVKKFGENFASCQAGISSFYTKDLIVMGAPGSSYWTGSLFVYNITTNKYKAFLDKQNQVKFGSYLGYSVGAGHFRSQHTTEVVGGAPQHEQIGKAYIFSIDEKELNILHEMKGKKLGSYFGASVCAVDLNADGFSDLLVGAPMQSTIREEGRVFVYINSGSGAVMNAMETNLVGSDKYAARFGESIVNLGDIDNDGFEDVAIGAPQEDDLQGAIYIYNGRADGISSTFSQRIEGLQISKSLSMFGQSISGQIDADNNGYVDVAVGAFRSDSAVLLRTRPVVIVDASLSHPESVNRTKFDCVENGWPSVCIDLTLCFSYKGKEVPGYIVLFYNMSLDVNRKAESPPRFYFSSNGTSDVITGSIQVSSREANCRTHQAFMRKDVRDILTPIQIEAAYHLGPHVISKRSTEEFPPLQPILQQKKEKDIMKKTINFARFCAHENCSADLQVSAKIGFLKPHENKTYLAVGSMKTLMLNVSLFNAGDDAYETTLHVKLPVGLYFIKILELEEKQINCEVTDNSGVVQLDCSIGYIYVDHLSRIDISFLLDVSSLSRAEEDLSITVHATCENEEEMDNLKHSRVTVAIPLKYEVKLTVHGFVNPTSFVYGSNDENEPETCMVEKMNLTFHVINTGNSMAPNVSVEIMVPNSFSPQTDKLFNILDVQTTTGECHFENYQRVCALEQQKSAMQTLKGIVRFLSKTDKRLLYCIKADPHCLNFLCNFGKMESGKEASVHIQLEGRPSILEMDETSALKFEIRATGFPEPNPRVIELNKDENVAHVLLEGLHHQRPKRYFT
T1 sequence (P05556 21-728 limits assumed, form in doubt, chain 2 of 2): as the sequence (P05556 21-728 limits assumed, form in doubt, chain 2 of 2) above

For cyclic RGD [cRGD, reference compound], in assay [1], the “effect on dissociation of rh-α5β1 protein bound to FN (SPR response)” value is on record as “did not have any discernable effect on the dissociation rate”. In addition, the “cellular detachment (cell rounding) of U87MG cells from FN coated plates” value with U87MG cells was “did not show significant cell detachment”.

B1: A2-5D10 (antibody, V domains shown)
VH: QVQLKESGPGLVAPSQSLSITCTISGFSLTSYGVHWVRQPPGKGLEWLVVIWSDGSTTYNSTLKSRLSISKDNSKSQVFLKMNSLQTDDTAMYYCARHYDYDGDWFAYWGQGTLVTVSA
VL: QILLTQSPAIMSASLGERVTMTCTASSSVSSRCLHWYQQKPGSSPKLWIYSTSNLASGVPARFRGSGSGTSYSLTISSMEAEDAATYYCHQYYRSPPTFGGGTKLEIK
notes: mouse hybridoma antibody
In general, Kd refers to the concentration at which binding is half-saturated. In general, koff refers to the first-order rate constant of dissociation. As usually defined, the kon is the second-order rate constant of association. As for B1, the “Absorbance 450 nm” value was 0.0683 in assay [2], 2.31 in assay [3] and 0.0647 in assay [4]. For the same molecule, the Kd in assay [5] stood at 2.32 nM. The koff in assay [5] amounted to 0.00161 s⁻¹. Further, in assay [5], the on-rate (kon) was determined as 693000 M⁻¹ s⁻¹. Also, the “% Max Inhibition” value in assay [6] worked out at 93%.

B2: A2-7A05 (antibody, V domains shown)
VH: QVQLQQPGAELVKPGASVKLSCKASGYTFTIYWINWVKQRPGQGLEWIGKIYPGSISTDYNEKFKSKATLTVDTSSSTAYMQLSSLTSDDSAVYYCAITGTGGLAYWGQGTLVTVSA
VL: ENVLTQSPAIMSASLGEKVTMTCRASSSVNYMYWYQQKSDASPKLWIYFTSSLAPGVPGRFSGSGSGNSYSLTISTMEGEDAATYYCQQFTTSPFTFGSGTKLEIK
notes: mouse hybridoma antibody; also called A2-7A05 (hybridoma)
For B2, in assay [2], the “Absorbance 450 nm” value came out at 0.0713. In addition, the “Absorbance 450 nm” value in assay [3] is 2.05. The “Absorbance 450 nm” value in assay [4] was 0.0682. Further, in assay [5], the Kd is 0.8 nM, the off-rate constant (koff) amounted to 0.000178 s⁻¹ and the kon was determined as 222000 M⁻¹ s⁻¹. For the same molecule, in assay [6], the “% Max Inhibition” value was found to be 41%.

B3: A2-7F01 (antibody, V domains shown)
VH: B2 VH with K50N, I56S, D59N, S66T, L104F
VL: B2 VL with T22S, G59T, Y70F, T76S, F90L, T92G, K102R
notes: mouse hybridoma antibody
As to B3, the “Absorbance 450 nm” value in assay [2] came to 0.0617. Also, in assay [3], the “Absorbance 450 nm” value amounted to 2.03. In assay [4], the “Absorbance 450 nm” value was 0.0563. In assay [5], the equilibrium dissociation constant (Kd) is 1.3 nM, the koff is 0.000314 s⁻¹ and the kon stood at 242000 M⁻¹ s⁻¹. In assay [6], the “% Max Inhibition” value was determined as 60%.
